Reference: patent US7056679 (ANTYRA, dated 2006)
No end group written: not given here.

T1: DGI-2 (UniProt Q15004 1-111, limits assumed)
T1 construct: Soluble recombinant DGI-2 made by in vitro translation (RTS, pIVEX2.3-MCS vector) and coated on plates for the ELISA; vector tag not described; also called KIAA0101; DGI-2 polypeptide
T1 sequence (looked up): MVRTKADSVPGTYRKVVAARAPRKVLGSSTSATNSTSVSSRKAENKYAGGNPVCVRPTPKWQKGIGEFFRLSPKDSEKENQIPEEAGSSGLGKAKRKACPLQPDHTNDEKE


Molecular target: T1, DGI-2
Assay: phage ELISA, coated DGI-2
Protocol: For analysis of individual target binders, colonies were picked and phage prepared as described above using helper phage, M13KO7. Ninety-six-well microtiter plates were coated with 500 ng/well of specific target protein, 500 ng/well lactate dehydrogenase (LDH) irrelevant or non-specific target, 500 ng/well of positive control antibody raised against ETAG, and negative control of non-fat milk powder-PBS 2% at 4° C. overnight. Plates were then blocked with 350 microliters/well PBS containing 2% non-fat milk for 1 hr at room temperature. One hundred microliters per well of phage from isolated clones were added and plates were incubated at room temperature for 2 hr after centrifuging samples for 20 minutes at 3500 rpm at 4° C. The phage solution was then removed, and the wells were washed three times with PBS at room temperature. Antibody raised against M13 conjugated to horseradish peroxidase (Pharmacia) was diluted 1:3000 in PBS-Tween and added to each well (100 µl/well). Incubation was for 1 hr at room temperature, followed by washing with PBS-(0.5%) Tween 3 times as described. Color was developed by addition of ABTS solution (100 µl/well; Boehringer, Indianapolis, Ind.). Plates were analyzed at 405 nm. A clone was considered "positive" if the $A405$ of the well was $\geq$2-fold over background.

| Binder | binding result |
| --- | --- |
| SLLCVVCRPVSGGRALGGVP (not fully specified; cysteine pairing not given here, on M13 phage, pIII fusion with E-tag) [DGI-2-20F-PP-B42] | binds |
| TPVAISIPAGVCSTSVCGRD (not fully specified; cysteine pairing not given here, on M13 phage, pIII fusion with E-tag) [DGI-2-20F-PP-C11] | binds |
| LVIGQRSFLSACSLFDGFCV (not fully specified; cysteine pairing not given here, on M13 phage, pIII fusion with E-tag) [DGI-2-20R-4-H814] | binds |
| VWRDWVNGTVGLRNREKPGV (on M13 phage, pIII fusion with E-tag) [DGI-2-20R-3-A5] | binds |
| QLDCLVWGLPGLRCDRPLEQ (not fully specified (bridges); cysteine pairing not given here, on M13 phage, pIII fusion with E-tag) [DGI-2-20R-3-B10] | binds |
| VCGQRVARMQLNKTIRKLDS (on M13 phage, pIII fusion with E-tag) [DGI-2-20F-PP-A6] | binds |
| FRMWVQSCFWGQPGTGCGEG (not fully specified; cysteine pairing not given here, on M13 phage, pIII fusion with E-tag) [DGI-2-20R-3-D2] | binds |
| LFRFSGTGMASLPCVGWHLV (on M13 phage, pIII fusion with E-tag) [DGI-2-20F-PP-B6] | binds |
| WWREWVDGSLRGGGGTVLKD (on M13 phage, pIII fusion with E-tag) [DGI-2-20R-3-A122] | binds |
| TIDVARRFGYGWWDLWLDGD (on M13 phage, pIII fusion with E-tag) [DGI-2-20R-3-C3] | binds |
| DRHRAFVAEGLDGFRHSTGV (on M13 phage, pIII fusion with E-tag) [DGI-2-20F-PP-D4] | binds |
| RRFVRCSVPVALRSAVPVSV (on M13 phage, pIII fusion with E-tag) [DGI-2-20F-PP-A10] | binds |
| GHGAGDWAAELFVCPVAFLTGFAWR (on M13 phage, pIII fusion with E-tag) [DGI-2-20R-4-H2] | binds |
| DRVARLATPTAGTMAAGSLGYERTVGCDSQDWFRCVVEGL (on M13 phage, pIII fusion with E-tag) [DGI-2-40F-3-D1044] | binds |
| VGHLLSRCAHHSPGMGASPYG (on M13 phage, pIII fusion with E-tag) [DGI-2-20F-PP-B11] | binds |
| RQRSGGRWVVDRVTRVASTSP (on M13 phage, pIII fusion with E-tag) [DGI-2-20F-PP-B12] | binds |
| CYLSRLFRSGQGIGQFGHVE (on M13 phage, pIII fusion with E-tag) [DGI-2-20F-PP-A82] | binds |
| SAFGCPLPRALGGGGARFYA (on M13 phage, pIII fusion with E-tag) [DGI-2-20F-PP-E11] | binds |
| PVYRVAMCRISVGCSAGAWF (not fully specified; cysteine pairing not given here, on M13 phage, pIII fusion with E-tag) [DGI-2-20F-PP-C12] | binds |
| RSYPRLCKQKGGVIGRMLPG (on M13 phage, pIII fusion with E-tag) [DGI-2-20F-PP-B2] | binds |
| VWAAWVEGSLLSPRQEPVRD (on M13 phage, pIII fusion with E-tag) [DGI-2-20R-4-G4] | binds |
| RGSLLLTLPRLSGAVGTAYG (on M13 phage, pIII fusion with E-tag) [DGI-2-20F-PP-B3] | binds |
| VVGYAQGDGLEGGLGSSRDGS (on M13 phage, pIII fusion with E-tag) [DGI-2-20F-PP-D8] | binds |
| DGRGWGAMWMRWAEGLGADI (on M13 phage, pIII fusion with E-tag) [DGI-2-20R-4-G114] | binds |
| GRWDGWEVCGIWGADDCASG (not fully specified; cysteine pairing not given here, on M13 phage, pIII fusion with E-tag) [DGI-2-20R-4-H1] | binds |
| EGQRVVFLFGALVAGLCWRDR (on M13 phage, pIII fusion with E-tag) [DGI-2-20F-PP-F3] | binds |

| Binder | binding result |
| --- | --- |
| VSGVPDGSMRAAQLASGYWC (on M13 phage, pIII fusion with E-tag) [DGI-2-20F-PP-G2] | binds |
| SVTISTSCRTGCPAGYLRRD (not fully specified; cysteine pairing not given here, on M13 phage, pIII fusion with E-tag) [DGI-2-20F-PP-D2] | binds |
| RDTMCGSVSWGIPGCEYSGM (not fully specified; cysteine pairing not given here, on M13 phage, pIII fusion with E-tag) [DGI-2-20R-4-G122] | binds |
| GGSLPVKSGQLVTCCTSKGG (on M13 phage, pIII fusion with E-tag) [DGI-2-20F-PP-F5] | binds |
| VTGTRFRGFAVACVRMGTWH (on M13 phage, pIII fusion with E-tag) [DGI-2-20F-PP-F2] | binds |
| LWRRWSEGQLLGDGELRGDG (on M13 phage, pIII fusion with E-tag) [DGI-2-20R-3-B52] | binds |
| MGADTCMGGKMPFDQMFGAV (on M13 phage, pIII fusion with E-tag) [DGI-2-20F-PP-E10] | binds |
| GWSDFVATGSWSGQVSAALN (on M13 phage, pIII fusion with E-tag) [DGI-2-20R-4-F120] | binds |
| VCSGGKGTWLEIPDRVRSST (on M13 phage, pIII fusion with E-tag) [DGI-2-20F-PP-A22] | binds |
| LLLPVRWRDAQPRSLLMEWI (on M13 phage, pIII fusion with E-tag) [DGI-2-20F-PP-F8] | binds |
| CCAWNGVGVGGLGWRVVVGP (on M13 phage, pIII fusion with E-tag) [DGI-2-20F-PP-H4] | binds |
| CGGWGAMWEAWVQGLNGAGC (not fully specified; cysteine pairing not given here, on M13 phage, pIII fusion with E-tag) [DGI-2-20R-3-D4] | binds |
| VSFAHDWGRWWYQWEVG (on M13 phage, pIII fusion with E-tag) [DGI-2-20R-4-G22] | binds |
| SVSGGGVFGTGGRVRHQVSG (on M13 phage, pIII fusion with E-tag) [DGI-2-20F-PP-C5] | binds |
| QMSRVAFSPGESWRRWVEGV (on M13 phage, pIII fusion with E-tag) [DGI-2-20R-3-A2] | binds |
| RRGVCEIFTGWCVGQTNERP (not fully specified (bridges); cysteine pairing not given here, on M13 phage, pIII fusion with E-tag) [DGI-2-20R-4-H626] | binds |
| LSLEGGWMWDTKGGDGGSAQ (on M13 phage, pIII fusion with E-tag) [DGI-2-20R-4-F93] | binds |
| RKGWGVFCIPGLRFCDWSDP (not fully specified; cysteine pairing not given here, on M13 phage, pIII fusion with E-tag) [DGI-2-20R-3-B4] | binds |
| GASRVVDVGWRFWGKLWQRS (on M13 phage, pIII fusion with E-tag) [DGI-2-20F-PP-G5] | binds |
| SRELGKWGRLWQDWSSGNFS (on M13 phage, pIII fusion with E-tag) [DGI-2-20R-3-C11] | binds |
| VQSGRDLGGLLRGGTGTEASP (on M13 phage, pIII fusion with E-tag) [DGI-2-20F-PP-D3] | binds |
| VGQSSGDARPLANLFVFPFV (on M13 phage, pIII fusion with E-tag) [DGI-2-20F-PP-F12] | binds |
| LFSATGCALMSGFCLGSDGS (not fully specified; cysteine pairing not given here, on M13 phage, pIII fusion with E-tag) [DGI-2-20R-3-C1] | binds |
| VVHTRAWGSWAYGFVLRNRG (on M13 phage, pIII fusion with E-tag) [DGI-2-20F-PP-F10] | binds |
| GGDLGEQGVQLCPDVVRGGSL (on M13 phage, pIII fusion with E-tag) [DGI-2-20F-PP-A7] | binds |
| RISVGQCGTSRCGGGRRGGG (not fully specified; cysteine pairing not given here, on M13 phage, pIII fusion with E-tag) [DGI-2-20F-PP-D1] | binds |
